Tests used:
6His–Cdc14p = target: T1, 6His–Cdc14p (budding yeast, UniProt Q00684 1-551); assay: pull-down
T1 sequence: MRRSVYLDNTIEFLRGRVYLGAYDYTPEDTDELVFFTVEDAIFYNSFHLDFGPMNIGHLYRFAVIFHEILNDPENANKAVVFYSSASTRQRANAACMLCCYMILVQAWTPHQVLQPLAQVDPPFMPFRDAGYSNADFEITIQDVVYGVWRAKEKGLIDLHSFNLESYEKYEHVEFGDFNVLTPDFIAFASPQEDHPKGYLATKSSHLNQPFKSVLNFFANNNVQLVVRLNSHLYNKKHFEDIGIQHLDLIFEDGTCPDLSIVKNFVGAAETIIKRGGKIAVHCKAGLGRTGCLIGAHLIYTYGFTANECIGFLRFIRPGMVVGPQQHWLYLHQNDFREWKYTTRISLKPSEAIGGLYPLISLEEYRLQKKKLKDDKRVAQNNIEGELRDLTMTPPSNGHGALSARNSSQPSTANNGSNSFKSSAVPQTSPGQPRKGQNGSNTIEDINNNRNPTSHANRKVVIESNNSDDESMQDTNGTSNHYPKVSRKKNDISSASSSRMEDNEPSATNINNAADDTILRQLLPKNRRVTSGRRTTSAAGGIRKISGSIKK

GST–Cdc14p = target: T2, GST–Cdc14p (budding yeast, UniProt Q00684 1-551); assay: pull-down
T2 sequence: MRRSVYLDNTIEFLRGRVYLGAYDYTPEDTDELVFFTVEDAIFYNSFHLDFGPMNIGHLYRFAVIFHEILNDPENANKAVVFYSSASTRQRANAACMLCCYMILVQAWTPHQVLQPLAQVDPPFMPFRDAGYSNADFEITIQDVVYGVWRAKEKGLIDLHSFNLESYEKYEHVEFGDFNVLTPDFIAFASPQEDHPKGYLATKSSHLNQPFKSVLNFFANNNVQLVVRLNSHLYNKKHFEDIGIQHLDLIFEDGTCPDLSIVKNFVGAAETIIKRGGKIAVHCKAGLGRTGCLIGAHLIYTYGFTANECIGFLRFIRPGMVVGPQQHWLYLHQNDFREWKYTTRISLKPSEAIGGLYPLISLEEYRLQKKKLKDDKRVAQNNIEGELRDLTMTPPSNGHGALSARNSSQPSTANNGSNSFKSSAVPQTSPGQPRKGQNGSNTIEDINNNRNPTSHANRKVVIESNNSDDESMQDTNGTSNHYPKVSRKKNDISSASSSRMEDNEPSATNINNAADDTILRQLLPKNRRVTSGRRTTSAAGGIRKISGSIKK

| Binder | binding result (6His–Cdc14p) | binding result (GST–Cdc14p) |
| --- | --- | --- |
| GST–Bfa1p^1–394 (domain or fragment) MSIRPLTLNGLDEPETSFEELNTTLPRFQSHETLTLEENVPPLSTSTYIPPPSSVGTSDTGTVFSNSTSAFWSNKQADDDQDMEVDQDDEFLNDFQEFQNKKDDFDDAIKTNFHLRNGCRTGPFKNDIFAEEFDRKLSLEDKPRLKQPRSMMELKPKRKLSNSVTSRNLRSGNSVRFKKSMPNLALVNPAIREEEEDEEREREDQREFNYKIDNDTQDTILAKFSSDDEGDFLTGFEELEGEAIDETISSNDKESADHPRFLKKSSSSLPLKISPAQYDIVKHDELLTPGLHRRQRDWNTQQELDSFKEKRSVRHCSNQNVQLNGPAKIKTIKQQIDHNTPMKKGSMIYNPKTMKWEGNENVLSKFSDVDTANRKALLIKNKLQRDADSKKQKY | binds | – |
| 6His–Tem1p (natural protein) MATPSTGANNSIPAVRNQVEVQVGLVGDAQVGKTSLMVKYVQNIYDKEYTQTLGVNFLKRKVSIRSTDIIFSIMDLGGQREFINMLPIATVGSSVIIFLFDLTRPETLSSIKEWYRQAYGLNDSAIPILVGTKYDLLIDLDPEYQEQISRTSMKYAQVMNAPLIFCSTAKSINIQKIFKIALAKIFNLTLTIPEINEIGDPLLIYKHLGGQQHRHHNKSQDRKSHNIRKPSSSPSSKAPSPGVNT | – | binds |
